B1: Serine/threonine-protein kinase D2 (Homo sapiens), Q9BZL6 (parent)
chain: MATAPSYPAGLPGSPGPGSPPPPGGLELQSPPPLLPQIPAPGSGVSFHIQIGLTREFVLLPAASELAHVKQLACSIVDQKFPECGFYGLYDKILLFKHDPTSANLLQLVRSSGDIQEGDLVEVVLSASATFEDFQIRPHALTVHSYRAPAFCDHCGEMLFGLVRQGLKCDGCGLNYHKRCAFSIPNNCSGARKRRLSSTSLASGHSVRLGTSESLPCTAEELSRSTTELLPRRPPSSSSSSSASSYTGRPIELDKMLLSKVKVPHTFLIHSYTRPTVCQACKKLLKGLFRQGLQCKDCKFNCHKRCATRVPNDCLGEALINGDVPMEEATDFSEADKSALMDESEDSGVIPGSHSENALHASEEEEGEGGKAQSSLGYIPLMRVVQSVRHTTRKSSTTLREGWVVHYSNKDTLRKRHYWRLDCKCITLFQNNTTNRYYKEIPLSEILTVESAQNFSLVPPGTNPHCFEIVTANATYFVGEMPGGTPGGPSGQGAEAARGWETAIRQALMPVILQDAPSAPGHAPHRQASLSISVSNSQIQENVDIATVYQIFPDEVLGSGQFGVVYGGKHRKTGRDVAVKVIDKLRFPTKQESQLRNEVAILQSLRHPGIVNLECMFETPEKVFVVMEKLHGDMLEMILSSEKGRLPERLTKFLITQILVALRHLHFKNIVHCDLKPENVLLASADPFPQVKLCDFGFARIIGEKSFRRSVVGTPAYLAPEVLLNQGYNRSLDMWSVGVIMYVSLSGTFPFNEDEDINDQIQNAAFMYPASPWSHISAGAIDLINNLLQVKMRKRYSVDKSLSHPWLQEYQTWLDLRELEGKMGERYITHESDDARWEQFAAEHPLPGSGLPTDRDLGGACPPQDHDMQGLAERISVL
partner: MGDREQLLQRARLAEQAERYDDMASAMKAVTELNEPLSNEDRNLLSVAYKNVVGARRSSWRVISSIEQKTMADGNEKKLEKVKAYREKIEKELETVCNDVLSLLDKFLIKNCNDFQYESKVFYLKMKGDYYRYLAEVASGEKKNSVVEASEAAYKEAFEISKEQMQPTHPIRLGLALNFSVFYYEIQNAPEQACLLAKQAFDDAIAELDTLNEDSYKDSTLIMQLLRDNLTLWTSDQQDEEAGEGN

Variants of: B1
Conditions: with 1433f_human YWHAH

effect of a mutation on the interaction	Variant
disrupting interaction	S244E;S706E;S710E
